Here are results for two substances from patent US20240238419A1.

For the test, the target named is TRAF6 (human) (UniProt Q9Y4K3). Description: cell-based or functional assay.
Sequence of UniProt Q9Y4K3 (Q9Y4K3 whole entry): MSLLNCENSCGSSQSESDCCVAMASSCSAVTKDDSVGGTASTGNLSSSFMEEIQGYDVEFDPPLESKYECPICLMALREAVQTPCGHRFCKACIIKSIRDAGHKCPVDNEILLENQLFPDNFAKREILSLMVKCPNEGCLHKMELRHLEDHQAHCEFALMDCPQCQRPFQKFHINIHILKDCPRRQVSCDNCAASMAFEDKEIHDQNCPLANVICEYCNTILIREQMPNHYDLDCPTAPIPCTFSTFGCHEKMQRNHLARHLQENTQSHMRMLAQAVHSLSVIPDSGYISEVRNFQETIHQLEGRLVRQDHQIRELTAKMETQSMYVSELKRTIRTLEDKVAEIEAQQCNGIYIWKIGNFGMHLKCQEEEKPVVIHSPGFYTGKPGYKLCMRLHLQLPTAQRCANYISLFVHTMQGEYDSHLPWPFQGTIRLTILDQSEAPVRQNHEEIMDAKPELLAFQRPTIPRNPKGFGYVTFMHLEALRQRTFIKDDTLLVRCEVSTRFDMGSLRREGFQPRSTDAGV

Turning to “human MALT1A E316A/E806A (from UniProt Q9UDY8 1-824) (enzyme)”, the activity of MALT1 detected by biotinylated MALT1 activity-based probe (bio-MALT1-ABP) pulldown, ratio of active to total MALT1, resting Jurkat T cells came to 50 fold.

On to “human MALT1B E795A (from UniProt Q9UDY8 2-824) (enzyme)”, for which the activity of MALT1 detected by biotinylated MALT1 activity-based probe (bio-MALT1-ABP) pulldown, ratio of active to total MALT1, resting Jurkat T cells worked out at 5 fold.
